# Assay results reported in patent US20110239316A1 (PIERRE FABRE MEDICAMENT, published 2011).
# Positions count from the first letter of the chain named.
# B1: murine 224G11 Mab (antibody, V domains shown)
# VH: EVQLQQSGPELVKPGASVKISCKTSGYIFTAYTMHWVRQSLGESLDWIGGIKPNNGLANYNQKFKGKATLTVDKSSSTAYMDLRSLTSEDSAVYYCARSEITTEFDYWGQGTALTVSS
# VL: DIVLTQSPASLAVSLGQRATISCRASESVDSYANSFMHWYQQKPGQPPKLLIYRASNLESGIPARFSGSGSRTDFTLTINPVEADDVATYYCQQSKEDPLTFGSGTKLEMKR
# B2: [224G11]chim (antibody, human IgG1, V domains shown)
# VH: B1 VH
# VL: B1 VL
# B3: [224G11] [Hz1] (antibody, V domains shown)
# VH: QVQLVQSGAEVKKPGASVKVSCKASGYIFTAYTMHWVRQAPGQGLEWMGWIKPNNGLANYAQKFQGRVTMTRDTSISTAYMELSRLRSDDTAVYYCARSEITTEFDYWGQGTLVTVSS
# VL: DIVLTQSPDSLAVSLGERATINCKSSESVDSYANSFMHWYQQKPGQPPKLLIYRASTRESGVPDRFSGSGSRTDFTLTISSLQAEDVAVYYCQQSKEDPLTFGGGTKVEIKR
# B4: [224G11] [Hz2] (antibody, V domains shown)
# VH: B3 VH
# VL: B3 VL with L4M, R72G
# B5: [224G11] [Hz3] (antibody, V domains shown)
# VH: B3 VH
# VL: B3 VL with L4M, M37L, R72G
# B6: [224G11] [MH chim] (antibody, V domains shown)
# VH: B1 VH
# VL: B1 VL
# B7: [224G11] [MUP9H chim] (antibody, V domains shown)
# VH: B1 VH
# VL: B1 VL
# B8: [224G11] [MMCH chim] (antibody, V domains shown)
# VH: B1 VH
# VL: B1 VL
# B9: [224G11] [TH7 chim] (antibody, human IgG1)
# heavy: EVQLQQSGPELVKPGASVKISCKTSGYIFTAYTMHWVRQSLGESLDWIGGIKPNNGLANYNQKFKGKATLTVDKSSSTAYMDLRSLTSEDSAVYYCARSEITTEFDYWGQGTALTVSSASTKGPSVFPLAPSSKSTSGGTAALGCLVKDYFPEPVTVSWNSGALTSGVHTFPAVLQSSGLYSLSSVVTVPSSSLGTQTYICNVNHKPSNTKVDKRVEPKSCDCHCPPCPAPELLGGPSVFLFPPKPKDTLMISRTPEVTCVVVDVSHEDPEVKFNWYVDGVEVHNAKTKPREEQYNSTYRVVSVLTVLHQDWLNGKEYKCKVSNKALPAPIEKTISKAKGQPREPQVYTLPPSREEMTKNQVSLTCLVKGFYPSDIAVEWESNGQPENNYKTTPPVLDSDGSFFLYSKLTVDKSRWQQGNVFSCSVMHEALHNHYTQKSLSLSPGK
# light: DIVLTQSPASLAVSLGQRATISCRASESVDSYANSFMHWYQQKPGQPPKLLIYRASNLESGIPARFSGSGSRTDFTLTINPVEADDVATYYCQQSKEDPLTFGSGTKLEMKRTVAAPSVFIFPPSDEQLKSGTASVVCLLNNFYPREAKVQWKVDNALQSGNSQESVTEQDSKDSTYSLSSTLTLSKADYEKHKVYACEVTHQGLSSPVTKSFNRGEC
# B10: [224G11] [TH7 Hz1] (antibody, human IgG1, V domains shown)
# VH: B3 VH
# VL: B3 VL
# B11: [224G11] [TH7 Hz3] (antibody, human IgG1, V domains shown)
# VH: B3 VH
# VL: B3 VL with L4M, M37L, R72G
# B12: [224G11] [TH7 Hz2] (antibody, human IgG1, V domains shown)
# VH: B3 VH
# VL: B3 VL with L4M, R72G
# B13: [224G11] [IgG2 chim] (antibody)
# heavy: EVQLQQSGPELVKPGASVKISCKTSGYIFTAYTMHWVRQSLGESLDWIGGIKPNNGLANYNQKFKGKATLTVDKSSSTAYMDLRSLTSEDSAVYYCARSEITTEFDYWGQGTALTVSSASTKGPSVFPLAPCSRSTSESTAALGCLVKDYFPEPVTVSWNSGALTSGVHTFPAVLQSSGLYSLSSVVTVPSSNFGTQTYTCNVDHKPSNTKVDKTVERKCCVECPPCPAPPVAGPSVFLFPPKPKDTLMISRTPEVTCVVVDVSHEDPEVQFNWYVDGVEVHNAKTKPREEQFNSTFRVVSVLTVVHQDWLNGKEYKCKVSNKGLPAPIEKTISKTKGQPREPQVYTLPPSREEMTKNQVSLTCLVKGFYPSDIAVEWESNGQPENNYKTTPPMLDSDGSFFLYSKLTVDKSRWQQGNVFSCSVMHEALHNHYTQKSLSLSPG
# light: B9 light
# Key:
# human c-Met receptor = human c-Met receptor (human, UniProt P08581 25-1390); assay: cell-based or functional assay
# Sequence of human c-Met receptor (P08581 25-1390): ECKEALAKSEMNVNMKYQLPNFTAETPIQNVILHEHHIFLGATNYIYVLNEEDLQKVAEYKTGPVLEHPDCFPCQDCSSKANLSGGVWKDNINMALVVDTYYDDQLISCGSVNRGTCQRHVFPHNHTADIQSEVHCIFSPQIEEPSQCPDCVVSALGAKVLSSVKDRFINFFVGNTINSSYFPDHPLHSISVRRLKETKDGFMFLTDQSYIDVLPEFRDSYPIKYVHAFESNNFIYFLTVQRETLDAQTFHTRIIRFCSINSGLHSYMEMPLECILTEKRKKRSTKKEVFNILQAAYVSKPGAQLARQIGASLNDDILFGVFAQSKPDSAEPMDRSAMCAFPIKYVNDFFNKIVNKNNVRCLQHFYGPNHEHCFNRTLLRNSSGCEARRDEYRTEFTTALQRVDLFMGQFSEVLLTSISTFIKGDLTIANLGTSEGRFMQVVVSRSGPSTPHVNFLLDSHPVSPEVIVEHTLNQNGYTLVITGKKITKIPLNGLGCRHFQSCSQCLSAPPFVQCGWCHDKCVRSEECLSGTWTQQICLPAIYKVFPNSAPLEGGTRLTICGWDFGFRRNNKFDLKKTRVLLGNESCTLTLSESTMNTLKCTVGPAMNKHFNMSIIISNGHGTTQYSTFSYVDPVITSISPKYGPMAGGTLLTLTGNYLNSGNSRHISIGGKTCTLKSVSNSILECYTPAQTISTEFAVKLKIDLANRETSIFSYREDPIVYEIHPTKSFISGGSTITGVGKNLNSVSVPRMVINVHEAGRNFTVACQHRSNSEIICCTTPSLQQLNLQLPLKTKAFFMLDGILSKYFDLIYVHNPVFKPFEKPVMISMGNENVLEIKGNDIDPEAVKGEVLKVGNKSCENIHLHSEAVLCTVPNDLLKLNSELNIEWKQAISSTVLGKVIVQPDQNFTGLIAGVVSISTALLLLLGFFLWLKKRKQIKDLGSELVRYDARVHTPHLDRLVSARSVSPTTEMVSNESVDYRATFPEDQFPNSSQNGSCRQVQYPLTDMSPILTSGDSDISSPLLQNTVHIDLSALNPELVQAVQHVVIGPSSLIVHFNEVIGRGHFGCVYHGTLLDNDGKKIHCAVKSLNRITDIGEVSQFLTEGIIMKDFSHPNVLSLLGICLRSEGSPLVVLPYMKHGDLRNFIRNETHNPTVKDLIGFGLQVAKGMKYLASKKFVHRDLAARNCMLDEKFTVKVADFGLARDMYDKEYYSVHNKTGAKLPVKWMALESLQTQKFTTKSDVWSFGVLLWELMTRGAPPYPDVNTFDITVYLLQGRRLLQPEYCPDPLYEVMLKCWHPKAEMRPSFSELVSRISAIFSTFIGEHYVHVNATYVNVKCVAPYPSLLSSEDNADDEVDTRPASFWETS
# C-Met-Rluc = C-Met-Rluc (R. reniformis, UniProt P08581 25-1390); assay: cell-based or functional assay
# Sequence of C-Met-Rluc (P08581 25-1390): as above
Binder,"inhibition of HGF-induced proliferation of NCI-H441 cells ([3H]thymidine), FIG. 14A (human c-Met receptor)","inhibition of HGF-induced proliferation of NCI-H441 cells ([3H]thymidine), FIG. 14B (human c-Met receptor)","inhibition of HGF-induced proliferation of NCI-H441 cells ([3H]thymidine), FIG. 15 (human c-Met receptor)","inhibition of HGF induced BRET signal, c-Met activation model (C-Met-Rluc)","inhibition of HGF induced BRET signal, c-Met dimerization model (C-Met-Rluc)","BRET signal with Mab alone, c-Met activation model (C-Met-Rluc)"
B1,66%,57%,74%,56.4%,59.4%,
B2,19%,,33%,34.5%,28.9%,
B3,~46%,,,,,
B4,~30%,,,,,
B5,~35%,,,,,
B6,,79%,,59.7%,61.8%,5.1%
B7,,78%,,64.4%,64.4%,7.6%
B8,,84%,,53.2%,52.5%,-2%
B9,,93%,81%,73.8%,64.4%,-6.9%
B10,,,67%,59.9%,52.2%,
B11,,,76%,57.9%,49.4%,
B12,,,,41.8%,35.8%,
B13,,,,,62.4%,
